First the molecules themselves.
B4: CLEC14A with regions 97-108 of CD141 (receptor)
chain: EHPTADRAGCSASGACYSLHHATMKRQAAEEACILRGGALSTVRAGAELRAVLALLRAGPGPGGGSKDLLFWVALQLPPGCGDPKRLPLRGFSWLSSDPGGLESDTLQWVEEPQRSCTARRCAVLQATGGVEPAGWKEMRCHLRANGYLCKYQFEVLCPAPRPGAASNLSYRAPFQLHSAALDFSPPGTEVSALCRGQLPISVTCIADEIGARWDKLSGDVLCPCPGRYLRAGKCAELPNCLDDLGGFACECATGFELGKDGRSCVTSGEGQPTLGGTGVPTRRPPATATSPVPQRTWPIRVDEKLGETPLVPEQDNSVTSIPEIPRWGSQSTMSTLQMSLQAESKATITPSGSVISKFNSTTSSATPQAFDSSSAVVFIFVSTAVVVLVILTMTVLGLVKLCFHESPSSQPRKESMGPPGLESDPEPAALGSSSAHCTNNGVKVGDCDLRDRAEGALLAESPLGSSDA
notes: also called this mutant; not shown: C-terminal GFP tag (all constructs have one)

In test [1] the target is B4. In words: flow cytometry on HEK293T cells. On the technique in general: A flow cytometer gives signals particle by particle.
For test [2], the target named is T1, wild type thrombomodulin with GFP tag expressed in HEK293T cells (UniProt P07204 19-575).
T1 construct: whole, on cells; also called WT CD141; CD141; not shown: C-terminal GFP tag
Description: flow cytometry on GFP-gated HEK293T cells. Here is the method: (§1) FIG. 15—Binding of CRT antibodies was analysed using flow cytometry. All constructs have a C-terminus GFP tag so green cells were gated and stained red. All CRT antibodies bind to CLEC14A wild type with a C terminal GFP tag expressed in HEK293T cells. None of the CRT antibodies bind to wild type thrombomodulin with GFP tag expressed in HEK293T cells.
(§2) Binding of CRT antibodies was analysed using flow cytometry. All constructs have a C-terminus GFP tag so green cells were gated and stained red. All CRT antibodies bind WT CLEC14A and—as expected—none binds to WT CD141 (FIG. 15). In addition, none of the antibodies bound to Chimera 5 (except slight binding by CRT2) and all of the antibodies bind to Chimera 6 (except CRT2) (FIG. 15). This confirms that the binding site of the antibodies CRT1, 3, 4 and 5 and MMRN2 are within the C type lectin domain. It is possible that CRT2 binds on a region between the CTLD and sushi domain.

The target in test [3] is Chimera 6 (CLEC14A with SUSHI of CD141) fused to GFP tag. Description: flow cytometry on GFP-gated HEK293T cells. Here is the method:
as §1, §2

In test [4] the target is T2, CLEC14A with regions 122-142 of CD141 (human, UniProt Q86T13 22-490).
T2 construct: also called 122-142 chimera; not shown: C-terminal GFP tag (all constructs have one)
T2 sequence: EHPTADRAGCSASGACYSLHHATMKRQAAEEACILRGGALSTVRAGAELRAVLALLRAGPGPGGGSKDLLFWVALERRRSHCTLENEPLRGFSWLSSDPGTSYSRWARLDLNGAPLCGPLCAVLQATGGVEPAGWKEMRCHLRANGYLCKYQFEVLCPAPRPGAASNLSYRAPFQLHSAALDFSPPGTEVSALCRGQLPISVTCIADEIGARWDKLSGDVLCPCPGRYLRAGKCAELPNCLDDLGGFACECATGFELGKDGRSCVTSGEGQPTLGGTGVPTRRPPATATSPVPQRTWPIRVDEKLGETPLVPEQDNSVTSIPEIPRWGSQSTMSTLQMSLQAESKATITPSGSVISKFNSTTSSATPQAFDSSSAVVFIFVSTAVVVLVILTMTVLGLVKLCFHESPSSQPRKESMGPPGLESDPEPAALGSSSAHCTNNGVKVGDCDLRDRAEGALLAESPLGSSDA
Description: flow cytometry; the filing says the chimera did not fold correctly.

Test [5] addresses T3, full-length human MMRN2 with a His tag overexpressed in HEK293T cells (human, UniProt Q9H8L6 23-949).
T3 construct: Used as lysate of transfected HEK293T cells; also called hMMRN2; MMRN2 protein lysate; not shown: His tag of the pHL-Avitag3 vector
T3 sequence: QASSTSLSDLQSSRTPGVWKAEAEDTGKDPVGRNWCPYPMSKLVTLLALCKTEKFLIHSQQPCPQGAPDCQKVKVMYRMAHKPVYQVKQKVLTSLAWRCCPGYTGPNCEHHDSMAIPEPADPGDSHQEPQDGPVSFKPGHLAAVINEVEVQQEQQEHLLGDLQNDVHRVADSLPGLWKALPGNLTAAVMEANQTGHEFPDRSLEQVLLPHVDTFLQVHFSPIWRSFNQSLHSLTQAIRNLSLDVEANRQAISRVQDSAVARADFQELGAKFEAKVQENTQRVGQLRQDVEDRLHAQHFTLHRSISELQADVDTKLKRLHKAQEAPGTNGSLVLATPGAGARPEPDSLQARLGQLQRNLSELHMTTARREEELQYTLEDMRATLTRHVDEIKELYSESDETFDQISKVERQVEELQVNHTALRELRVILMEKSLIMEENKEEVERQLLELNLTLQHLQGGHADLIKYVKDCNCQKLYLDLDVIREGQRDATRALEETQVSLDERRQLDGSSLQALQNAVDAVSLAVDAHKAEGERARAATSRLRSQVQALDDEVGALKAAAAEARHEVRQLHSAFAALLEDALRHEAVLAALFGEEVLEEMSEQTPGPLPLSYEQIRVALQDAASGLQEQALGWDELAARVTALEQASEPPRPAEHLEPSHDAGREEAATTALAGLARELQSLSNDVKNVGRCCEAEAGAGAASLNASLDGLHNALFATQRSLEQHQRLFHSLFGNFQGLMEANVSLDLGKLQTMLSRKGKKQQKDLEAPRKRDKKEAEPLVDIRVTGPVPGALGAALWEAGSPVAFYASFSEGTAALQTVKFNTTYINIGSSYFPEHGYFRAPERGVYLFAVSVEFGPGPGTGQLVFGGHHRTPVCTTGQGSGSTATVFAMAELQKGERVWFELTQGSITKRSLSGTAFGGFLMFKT
In words: far Western blot of HEK293T lysates with MMRN2 protein lysate, non-reduced. The source says: FIG. 13—MMRN2 directly binds to either the C-type lectin or sushi domain of CLEC14A under non-reduced conditions. HEK293T cells were mock transfected or transfected with pCS2 vectors containing CLEC14A wild type (WT) or constructs with each major domain deleted (Δ) with an N-terminal HA tag. Upon far western blotting with MMRN2 protein lysate, binding can be seen in all mutants except those missing the C-type lectin domain (CTLD) or the sushi domain. An anti-HA blot was included to show all mutant proteins were expressed.

Test [6] has as its target T3, full-length human MMRN2 with a His tag …. In words: method for MMRN2 not told.

The values below come from patent publication US20180282418A1 (CANCER RESEARCH TECHNOLOGY, published 2018).

T1 sequence (P07204 19-575): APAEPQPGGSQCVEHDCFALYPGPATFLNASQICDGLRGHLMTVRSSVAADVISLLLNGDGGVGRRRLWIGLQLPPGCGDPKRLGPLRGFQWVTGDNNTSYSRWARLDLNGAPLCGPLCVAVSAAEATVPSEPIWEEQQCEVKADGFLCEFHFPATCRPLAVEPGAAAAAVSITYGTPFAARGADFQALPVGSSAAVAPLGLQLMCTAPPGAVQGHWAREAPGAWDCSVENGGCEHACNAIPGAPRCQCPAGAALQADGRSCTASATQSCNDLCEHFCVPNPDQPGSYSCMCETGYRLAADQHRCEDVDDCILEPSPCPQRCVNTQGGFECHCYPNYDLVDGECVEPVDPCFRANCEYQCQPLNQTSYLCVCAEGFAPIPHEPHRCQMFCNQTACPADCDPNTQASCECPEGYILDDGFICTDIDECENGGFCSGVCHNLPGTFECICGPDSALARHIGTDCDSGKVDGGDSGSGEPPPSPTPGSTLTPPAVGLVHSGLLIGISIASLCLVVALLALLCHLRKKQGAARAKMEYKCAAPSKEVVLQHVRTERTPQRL

B1: CLEC14A monoclonal antibody C4 (antibody, V domains shown)
VH: QVQLQQSGAELMKPGASVKISCKATGYTFSSYWIEWVNRRPGHGLEWIGEILPGSGSTNYNEKFKGKATFTADTSSNTAYMQLSSLTSEDSAVYYCARGGDYDEEYYLMDYWGQGTTLTVSS
VL: QIVLTQSPAIMSASPGEKVTMTCSASSSVSYMYWYQQKPGSSPRLLIYDTSNLASGVPVRFSGSGSGTSYSLTISRMEAEDAATYYCQQWSSYPLTFGAGTKLEIKR
notes: Mouse monoclonal antibody raised against murine CLEC14A-Fc; The entries carry cloning residues (N-terminal MA on VH, C-terminal AA on VL); also called CRT4; clone C4
B1: the binding result was “no binding” in test [1], “no binding” in test [2], “binds” in test [3] and “no binding” in test [4].

B2: CLEC14A monoclonal antibody C5 (antibody, V domains shown)
VH: AEVQLQQSGAELMKPGASVKISCKATGYTFSSYWIEWVNQRPGHGLEWIGEILPGSGSTNYNEKFKGKATFTADTSSNTAYMQLSSLTSEDSAVYYCARGGDYDEEYYAMDYWGQGTSVTL
VL: QIVLTQSPAIMSASPGEKVTMTCSASSSVSYMYWYQQKPGSSPRLLIYDTSNLASGVPVRFSGSGSGTSYSLTISRMEAEDGATYYCQQWSSYPLTFGAGTKLELKR
notes: CLEC14A monoclonal antibody; also called CRT5
On to B2, for which the binding result in test [1], in test [2] and in test [4] was “no binding” throughout.

B3: HA-CLEC14A (CLEC14A wild type with an N-terminal HA tag) expressed in HEK293T cells (receptor)
chain: EHPTADRAGCSASGACYSLHHATMKRQAAEEACILRGGALSTVRAGAELRAVLALLRAGPGPGGGSKDLLFWVALERRRSHCTLENEPLRGFSWLSSDPGGLESDTLQWVEEPQRSCTARRCAVLQATGGVEPAGWKEMRCHLRANGYLCKYQFEVLCPAPRPGAASNLSYRAPFQLHSAALDFSPPGTEVSALCRGQLPISVTCIADEIGARWDKLSGDVLCPCPGRYLRAGKCAELPNCLDDLGGFACECATGFELGKDGRSCVTSGEGQPTLGGTGVPTRRPPATATSPVPQRTWPIRVDEKLGETPLVPEQDNSVTSIPEIPRWGSQSTMSTLQMSLQAESKATITPSGSVISKFNSTTSSATPQAFDSSSAVVFIFVSTAVVVLVILTMTVLGLVKLCFHESPSSQPRKESMGPPGLESDPEPAALGSSSAHCTNNGVKVGDCDLRDRAEGALLAESPLGSSDA
notes: also called CLEC14A wild type (WT); not shown: N-terminal HA tag
Regarding B3, in test [5], the binding result is listed as “binds”.
As for B4, the binding result in test [6] is “no binding”.
